According to a protein production outcome set (Wang et al. 2014):

Experiment: label from the status in PepcDB records

Sequence | protein production
MELIEVQEGKAKILIPKAESIYDSPVFYNPRMALNRDIVVVLLNILNPKIVLDALSATGIRGIRFALETPAEEVWLNDISEDAYELMKRNVMLNFDGELRESKGRAILKGEKTIVINHDDANRLMAERHRYFHFIDLDPFGSPMEFLDTALRSAKRRGILGVTATDGAPLCGAHPRACLRKYLAVPLRGELCHEVGTRILVGVIARYAAKYDLGIDVILAYYKDHYFRAFVKLKDGARKGDETLEKLGYIYFDDKTGKFELEQGFLPTRPNAYGPVWLGPLKDEKIVSKMVKEAESLSLARKKQALKLLKMIDQELDIPLFYDTHAIGRRLKIETKKVEEIISALREQGYEATRTHFSPTGIKTSAPYEVFIETIKRI | not failed
MVVIDPTLLGILACPQDKGPLLLVGDELLYNPRLRRAYPIENGIPVLLIDEARDVGADEHETLLARAAGEA | not failed
MFRSLNSYLIDFTGLVVISVLICLVSAGGSLASGLPFQIPASVLQLNTIFISILIEALPFVLIGVLIAGFIQIFVTEEHIRSLFPKNRFSGVIVSCLLGACFPACECGIVPIVRRLVSKGVPIYAGVGFLLTGPLINPIVVLSTYMAFGNDLRMAVLRVAVGFAAAVIIAFAISMMFRSSQLKTESRQTAAHCAHSGRRSPFSEKLFDMLKHAVDEFFDMGRFLIIGALVAALVQTYLPLKSLFVFGGGMLDSALVMMGLAYFLSLCSEADAFIGASFTNLFPSSSILAFLVYGPMLDLKNTVMMLHAFKPKFVICLSVLITVVVFVCIKVVSLL | failed
MHKKTVILIIFAILGGVMGAAYFTRAWLVMGITSRLVNNIIVNILLGAIIFLILGSLFAGVLVRLINRIEAYLNRQNPMTLIFGSLLTIVGLALALLISQFLFRVPSFFIGTVIPWILMILFGYFGYRIGARLSKIRLEEWRKLFQSRSKKAEEETDKQVLDKETEPNFHHYKILDTNILIDGRIYDLAKTGFLEGTLLVPNFVLYELQYIADSSDSVKRVRGRRGLDILNKLQNEHIMPIEMYEGDFEDIPEVDSKLIALAKQNGGVIVTNDYNLNKVIQFQNVQVLNINSLANALKPRVIPGENLHVMVVKNGTERQQGVAYLDDGTMVVVEDGRYFINKQLDVVVTSAIQTDAGRMIFAKPLHSNKNIEEQANAGKEGKGSNSAKPTKRSR | failed
MIFNSARLKDMDIQYQILRQIEKYQTIIIHRHQRPDPDAVGSQLGLKNGLQAAFPEKNIYAVGKEITGLAWVGSMDIIPDSTYENALVIVIDTANVARIDDDRFKNGDKLIKIDHHPNDEPYGDLMWVEPGRSSCSEMVTFFLDDNIPLLLTDEAARNLYIGIVGDTGRFMYASTPETFIAVSKLYHFSIDYERVNREMSSISLVQARFSGKVYDEMKVEDHVGWITLTKAEIEAGHLGNEGTNFVVGMFGSIKEVLVWANFIENDDGSYRVRLRSKGPNVNEIAKLHNGGGHDMASGAKAKDQTEIDQIIKELKESANIFSTSLEKTAK | failed
MKWLDRLKIANYHRKRYKQFGNDKARTLGWQDEYSQISRFEALTRSLCLEAVSILDIGCGFGDLLEYIESQNQYPARYVGIDLQKQFITKARKKAFKTPVNFICGDFSKLVLPQSDYVFASGSLNYKSSNANHTIEMIEKMYRAARIGCVFNLLDEEKLPSMRMLESHNKVGVLRYCRWLCPDAQLIEGYSDHDFTIVMIKKAEPVS | failed
MQIVGSVALMLWGIRLVRTGFIRAFGGSLRHYLGLAISGRLTSFGVGLAITVFLQSSTATALIISSFASKGLVQTPAALAVMLGADVGTSISAQILSFNLSWLAYAAILIGFFLHGRGGRFATRQIGRAIVGLGMVLLALSLIRMSSQPLREADGLAYVLSALEGEVLLTLFLMAVLTWLVHSSLAVVLLTASLASAGIVPTGTGLVMILGANIGGTIPPIIATLSTGPQSQHAALGNAGFKLLASLLVLPFLPWVGERLQSFGGDAQVLVNFHLTFNLLVATLFLPWVQTAAALLARVFPDTGAGAVEPVTKYLDKELITSPALALTSATRELYRVNERIEDSLALLSGGIAARDQVDVQGAQENRARVAAMLEEFKFYLTDITREEISESDSAKAMNLLLIATNLGHVSELVTNAVELTASTSHEQIRFSEAGTAELLEMLELIHQGIRLALSAALLGDAKVRKTLQKGRKELERMVDESRQAHFSRLAEGTLSSISTTSLHNELLRDFSRIYYHIYTASKIGGRDSSVMIRG | failed
MKVALGGTFEPLHEGHKKLIDVAIKLGGRDITIGVTSDRMARARIRSVLPFAIRAENVKRYVMRKYGFEPEIVKITNPYGKTLDVDFEYLVVSPETYEMALKINQKREELGKRKITIVKVDWMMAEDGKPISSTRIKRGEIDRYGGII | not failed
MFRWERSIPLRGSAAALCNNLSVLQLPARNLTYFGVVHGPSAQLLSAAPEGVPLAQRQLHAKEGAGVSPPLITQVHWCVLPFRVLLVLTSHRGIQMYESNGYTMVYWHALDSGDASPVQAVFARGIAASGHFICVGTWSGRVLVFDIPAKGPNIVLSEELAGHQMPITDIATEPAQGQDCVADMVTADDSGLLCVWRSGPEFTLLTRIPGFGVPCPSVQLWQGIIAAGYGNGQVHLYEATTGNLHVQINAHARAICALDLASEVGKLLSAGEDTFVHIWKLSRNPESGYIEVEHCHGECVADTQLCGARFCDSSGNSFAVTGYDLAEIRRFSSV | failed
MEKLGAVLFDDPNLSMNRTMACSTCHMQAAGFSDARESEKVGRDVSLGDDGISLGDRNAPTAAYAKFTPPFGKNAAGEYIGGQFWDGRASLLEDQAGGPPLNPVEMGMPDKAAVVKRLRENPDYVAAFGTQFGKDVFASDESAYAAMTKALASFERSDEFSTFDSKYDRFLRGEEKLTDQEELGRVLISSTQFTNCNTCHEIRGAKGLEDGLFTNHKYFNIGVPANTSVRAVNGSKPDAVDLGLAQNPAVAGDPAQRGKFKVPTLRNVAVTGPYMHNGVFKDLRTVVLFYVKYKSKKPSRQINPETGKTWDAPEVPENIAMTELTSAPALDDKRVDAIVAFLKTLTDRRYEHLLPKEDGQTAAPTAQPVLSVTPKAP | failed
MAHNYLLEIGLEEIPAHVVTPSIKQLVQKVTAFLKENRLTYDSIDHFSTPRRLAIRINGLGDQQPDIEEDAKGPARKIAQDADGNWTKAAIGFTRGQGLTVDDITFKTIKGTDYVYVHKLIKGKMTKEILTGLKEVVESINFPTMMKWANFDFKYVRPIRWLVSILDEEVLPFSILDVTAGRRTEGHRFLGEAVELANAEEYEAKLHDQFVIVDADERKQLISNQIKAIAESNRWNVTPNPGLLEEVNNLVEWPTAFNGGFDEKYLAIPEEVLITSMRDHQRFFFVRDQAGKLLPNFISVRNGNEEFIENVVRGNEKVLTARLEDAAFFYEEDQKHDINYYVDRLKKVSFHDKIGSMYEKLQRVNSIAKVIGNTLNLNQTELDDIDRATMIYKFDLVTGMVGEFSELQGVMGEKYAQLNGENQAVAQAIREHYMPNSAEGDLPESVTGAVVALADKFDNIFSFFSAGMIPSGSNDPYALRRHAYGIVRILNSRDWQLDLNQFKSQVKTELAENGTAFGVDVDQNFDQVLNFFNDRIKQLLDHQKISHDIVETVLTGNNHDVTEIIEAAQVLADAKASSTFKDDIEALTRVQRIATKNEESGELNVDPQLFNNASEGELFDQIIKIEAANNLTMSQLFAKLCELTPAISKYFDATMVMDKDENIKRNRLNMMSRLANLILKIGDLTNVLVK | failed
SKCLERFGPFYLLYKDRLSFVNADASELTFHPDTAVLRLKAPHDALISLLGQSPKSILDTTMGLASDSLVMAAVRNRVTALESQEVIFQVVSRGLATYQTDNKQIEKAMRSIKAVKSDSLTFLKSQTDHSFDIIYADPMFSETIKESENLNAIKPLANGSRLTREWLDEAKRVGRERIIIKAHFRDSVFEELGFERQVRP | failed
MNMLALTILLPLIGFVLLAFSRGRWSENLSATVGMGSVGLAALVTAYVGVDFFANGKQAVSVPLWTWMSVGDFNIGFNLVLDGLSLTMLSVVTGVGFLIHMFASWYMRGEEGYSRFFAYTNLFIASMVVLVLADNLLLMYLGWEGVGLCSYLLIGFYYTDPKNGAAAMKAFVVTRVGDVFLAFALFILYNELGTLNFREMVELAPQHFANGSTTLQWATLMLLGGAVGKSAQLPLQTWLADAMAGPTPVSALIHAATMVTAGVYLIARTHGLFLMTPEVLHLVGIVGAVTLVLAGFAALVQTDIKRVLAYSTMSQIGYMFLALGVQAWDAAIFHLMTHAFFKALLFLSSGSVILACHHEQNIFKMGGLRKSIPLVYVCFLVGGAALSALPLITAGFFSKDEILAGAMANGHINLMVAGLVGAFMTSLYTFRMIFIVFHGKEQIHAHAGKGITHHLPLIVLLVLSTFVGALIVPPLEGVLPQTTELAHGSVMTLEIASGIIAIAGILIAAWLWLGKRTLVTSIANSAPGRFFGTWWFHAWGFDWLYDKVFVKPFLGIAWLLKRDPLNSLMNIPAILSRFAGKGLLVSENGYLRWYVASMSIGAVVVLALLMVLR | failed
MTIKTLDISPVGRVEGDLDVRVEIEDGQVVNAWTHAELFRGFEIILRGKDPQAGLIVTPRICGICGASHLTSASWALDTAWNTTVPRNAILARNLGQIVETIQSIPRYFYGLFAIDLTNKKYRSSRFYDEAVRRFAAFTGKSYELGVTISSKPVEIYALFGGQWPHSSYMVPGGVMCAPTLTDITRAWAILEYFRTNWLEPVWLGCSLERYEEIQTYDDFMDWLEADIKHRESDLGFYWRMGLDIGLDRYGAGVGKYVSWGYLPHEDKYQKPTIEGRNAAMIMKSGVYDSFSDTHTLMDHTFARENTTHSWYDEGNADVHPFDRTTKPTQKNTKDFKNAYSWSTAVLHQDFGRLEVGPLARQLVAGGQHGESWQHYDGFILDAFQKMGGASIHLRQLARVHEIVKLYRQAERCLREFVLNDPWYIKPKEKDGRGWGATEASRGSLCHWIDIEGGKIKNYQVIAATTWNVGPRDSEGVRGPIEEALIGTPIEDSRDPVEVGHVARSFDSCLVCTVHAHDAKTGEELARFRTA | failed
MNKMLYGWLLAACCGLPPAFAGDSVDVLAQPALHGPQALRAVLQDVARADARLVAVGERGVVLLSDDNGATWRQATAVPVGVSLTAVQFIDARNGWAVGHAGVVLHSQDGGEHWSVQLDGKRAAALEVQAAEAAADERRLAAAQRLLADGADKPLLALNFTDARNGLVVGAYGVAMRTDDGGRSWQSEIGRLPNGRGLHLYALARQGNQVYIAGEQGLLLRSRDGGEHYEALHGPYDGSYFAATVLPDGRLLLGGLRGSLFASDDGGDSFQALANPTPASINGLRVAGGQLLLANQAGMLLRSGLGAFAAQPVAVSDGLPLTAATTAADGSIVAVGMAGARRLEPSSLEHHHHHH | failed
MNKLYIGNLSPAVTADDLRQLFGDRKLPLAGQVLLKSGYAFVDYPDQNWAIRAIETLSGKVELHGKIMEVDYSVSKKLRS | not failed
PDVDGMITLKVDNLTYRTSPDSLRRVFEKYGRVGDVYIPREPHTKAPRGFAFVRFHDRRDAQDAEAAMDGAELDGRELRVQVARYGRRDL | not failed
AIAREWKSQDAWKQHSLRLCFGVWPGTEFLHRPRAVHRRSGVVCSQMQTEDSHPETPQVPKESLQEEKDSSPATDASFIQSQDGKTVFLDRRTERRIQRGFVLTERGPRSIWKPAGTSSQRNERVPRRAAARGGAGPPDTTPQLATVRVLVLGANHVAQRLAELLSSHSRVCGCYFVSETTDEAAIESMKKYAYALPLRSALNDDEVVRVAEWVLADYVFLVPTGETHDDGVSLKDKERLERTLAQNRVTFMDENLTGLLLENPSLIDALFRARDSLEA | failed
MSLSDAVNKHPKSPNPQLCAVTLLGNLVATPDIRYRANPATAVTEIVLATSSKWLDKITNKYKEWTSYHHVKVEGELVELALLNANKGDIILLHGYLSNIKPKSTDKSTNHLGIVHANFVQKFEKGYTQAINQIHCSAQLTSKPKLMLTEQNKNITQANIVINQHIYNTDKQAWQTISVERAIHVWGKQAQYLAEHGDIGDELMLEGKLSYTSGVSKDQFIEVKNVHLFKGTLEHHHHHH | not failed
